In assay [1] the target is Protein G (Dynabeads Protein G, Thermo Fisher Scientific) (UniProt P19909). Kind of assay: immunoprecipitation with Dynabeads Protein G after storage in mouse plasma at 37 C, 7 day point.
Assay [2] has the same target. Kind of assay: immunoprecipitation with Dynabeads Protein G after storage in rat plasma at 37 C, 7 day point.
Assay [3] has the same target. Kind of assay: immunoprecipitation with Dynabeads Protein G after storage in monkey plasma at 37 C, 1 day point.
For assay [4] the target is unchanged. Briefly: immunoprecipitation with Dynabeads Protein G after storage in human plasma at 37 C, 1 day point.
Assay [5] shares this target. Kind of assay: immunoprecipitation with Dynabeads Protein G after storage in human plasma at 37 C, 7 day point.
For assay [6] the target is unchanged. Briefly: immunoprecipitation with Dynabeads Protein G after storage in monkey plasma at 37 C, 7 day point.
For assay [7] the target is unchanged. Briefly: immunoprecipitation with Dynabeads Protein G after storage in human plasma at 37 C, 14 day point.
Assay [8] shares this target. Briefly: immunoprecipitation with Dynabeads Protein G after storage in human plasma at 37 C, 0 day point; share of radioactivity bound to Protein G.
Assay [9] has the same target. Kind of assay: immunoprecipitation with Dynabeads Protein G after storage in rat plasma at 37 C, 0 day point.
Assay [10] has the same target. Briefly: immunoprecipitation with Dynabeads Protein G after storage in monkey plasma at 37 C, 0 day point.
Assay [11] has the same target. Kind of assay: immunoprecipitation with Dynabeads Protein G after storage in mouse plasma at 37 C, 0 day point.
Assay [12] has the same target. Kind of assay: immunoprecipitation with Dynabeads Protein G after storage in rat plasma at 37 C, 1 day point.
Assay [13] has the same target. Kind of assay: immunoprecipitation with Dynabeads Protein G after storage in mouse plasma at 37 C, 1 day point.

Consider “radioconjugate (Example 1): conjugate with rituximab by using 225Ac-labeled DOTAGA-DBCO (antibody)”, for which the recovery rate (%) by beads in assay [1] worked out at 93.1%; in [2] it was 90.4%; in assay [3], 90.4%; in assay [4], 90.5%; in assay [5] it was 81%; in assay [6] it was 90.5%. Further, the recovery rate (%) by beads was 76.4% in assay [7]; 95% in [8]; 97.4% in assay [9]; 92.9% in assay [10]; 98.1% in assay [11]; 94.8% in assay [12]. Also, in [13], the recovery rate (%) by beads turned out to be 95%.

Source of the values: patent US20240207464A1.
